The text below walks through data of article PMC10104521 (Proceedings of the National Academy of Sciences of the …, 2023).

As a reminder, the stoichiometry N is a count of units in the complex or per binding partner.

In data set [1] the target is T1, nonfarnesylated GBP1 (human), P32455.
T1 chain: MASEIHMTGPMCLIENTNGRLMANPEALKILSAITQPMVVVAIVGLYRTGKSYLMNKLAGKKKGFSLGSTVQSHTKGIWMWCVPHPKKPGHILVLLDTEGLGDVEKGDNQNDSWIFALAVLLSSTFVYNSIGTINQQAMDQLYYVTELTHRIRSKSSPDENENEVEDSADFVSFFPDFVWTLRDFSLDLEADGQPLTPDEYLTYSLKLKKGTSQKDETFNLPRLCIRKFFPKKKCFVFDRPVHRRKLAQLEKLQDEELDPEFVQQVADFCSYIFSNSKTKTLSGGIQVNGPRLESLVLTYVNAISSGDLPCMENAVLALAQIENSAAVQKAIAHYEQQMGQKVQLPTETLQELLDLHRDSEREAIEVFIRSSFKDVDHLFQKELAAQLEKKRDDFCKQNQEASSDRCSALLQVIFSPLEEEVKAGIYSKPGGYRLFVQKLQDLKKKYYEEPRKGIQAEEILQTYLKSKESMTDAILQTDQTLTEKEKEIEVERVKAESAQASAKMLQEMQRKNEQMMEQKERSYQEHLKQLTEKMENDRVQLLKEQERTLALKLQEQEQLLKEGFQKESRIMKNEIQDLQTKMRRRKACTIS
As to the kind of experiment: dynamic light scattering. The note with it: remark: other sources report otherwise.

The target of data set [2] is T2, geranylgeranylated GBP5 (guanylate-binding protein 5) (human), Q96PP8.
T2 chain: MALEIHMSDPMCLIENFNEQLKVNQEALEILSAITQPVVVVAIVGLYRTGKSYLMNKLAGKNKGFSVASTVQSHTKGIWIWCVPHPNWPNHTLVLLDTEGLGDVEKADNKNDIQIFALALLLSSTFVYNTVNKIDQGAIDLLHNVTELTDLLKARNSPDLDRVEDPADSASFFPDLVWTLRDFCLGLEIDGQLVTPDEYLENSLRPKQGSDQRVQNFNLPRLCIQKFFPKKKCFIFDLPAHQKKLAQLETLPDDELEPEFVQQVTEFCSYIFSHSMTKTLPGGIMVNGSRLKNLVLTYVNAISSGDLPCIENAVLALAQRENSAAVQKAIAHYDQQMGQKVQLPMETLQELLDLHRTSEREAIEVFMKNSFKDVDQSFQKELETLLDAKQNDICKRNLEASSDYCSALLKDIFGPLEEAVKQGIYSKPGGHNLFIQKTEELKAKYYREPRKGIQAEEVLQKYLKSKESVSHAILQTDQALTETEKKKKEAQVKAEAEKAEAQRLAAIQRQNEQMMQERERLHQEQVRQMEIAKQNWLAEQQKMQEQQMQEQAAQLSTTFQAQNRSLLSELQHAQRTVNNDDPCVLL
Kind of data set: dynamic light scattering. The note with it: remark: other sources report otherwise.

Data set [3] deals with T3, farnesylated GBP1 (guanylate-binding protein 1) (human, UniProt P32455 1-592, C-terminal farnesyl moiety).
T3 sequence: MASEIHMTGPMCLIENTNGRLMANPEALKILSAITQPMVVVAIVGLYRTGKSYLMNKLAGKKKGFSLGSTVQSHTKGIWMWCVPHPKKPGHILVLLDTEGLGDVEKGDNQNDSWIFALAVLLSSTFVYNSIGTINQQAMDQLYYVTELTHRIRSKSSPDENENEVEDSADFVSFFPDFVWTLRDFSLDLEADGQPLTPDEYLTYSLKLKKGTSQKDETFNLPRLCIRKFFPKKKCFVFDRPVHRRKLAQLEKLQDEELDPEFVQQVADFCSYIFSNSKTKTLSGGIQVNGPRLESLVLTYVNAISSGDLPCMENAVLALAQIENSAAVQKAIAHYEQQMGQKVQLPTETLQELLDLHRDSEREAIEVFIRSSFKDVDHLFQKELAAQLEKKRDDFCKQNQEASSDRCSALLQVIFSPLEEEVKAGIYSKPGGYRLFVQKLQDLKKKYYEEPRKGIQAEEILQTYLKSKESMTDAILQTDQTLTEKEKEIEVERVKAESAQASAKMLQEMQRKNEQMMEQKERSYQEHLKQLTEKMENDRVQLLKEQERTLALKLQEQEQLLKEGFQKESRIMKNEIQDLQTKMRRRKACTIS
As to the kind of experiment: UV-absorbance-based light scattering.

For data set [4], the target named is T4, nongeranylgeranylated GBP5 (human), Q96PP8.
T4 chain: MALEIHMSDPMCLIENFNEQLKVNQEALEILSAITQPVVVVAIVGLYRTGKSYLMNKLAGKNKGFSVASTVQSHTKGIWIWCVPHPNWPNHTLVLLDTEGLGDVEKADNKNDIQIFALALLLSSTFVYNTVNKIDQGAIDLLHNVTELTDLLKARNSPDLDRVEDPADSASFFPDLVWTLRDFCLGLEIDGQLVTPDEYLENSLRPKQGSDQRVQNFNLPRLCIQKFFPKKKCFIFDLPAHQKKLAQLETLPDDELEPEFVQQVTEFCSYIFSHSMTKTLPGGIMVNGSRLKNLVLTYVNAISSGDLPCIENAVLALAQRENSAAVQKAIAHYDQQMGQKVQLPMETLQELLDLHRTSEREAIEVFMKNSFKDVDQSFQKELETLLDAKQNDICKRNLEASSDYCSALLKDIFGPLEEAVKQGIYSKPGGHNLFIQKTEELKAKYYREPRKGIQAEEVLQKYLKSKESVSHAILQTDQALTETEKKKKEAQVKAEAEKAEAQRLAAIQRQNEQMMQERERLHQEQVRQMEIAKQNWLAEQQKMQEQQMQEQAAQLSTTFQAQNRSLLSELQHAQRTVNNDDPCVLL
Kind of data set: dynamic light scattering. The note with it: remark: other sources report otherwise.

The data set “dynamic light scattering” concerns the molecule itself. Kind of data set: dynamic light scattering.

B1: nonfarnesylated GBP1, P32455 1-592 (natural protein)
chain: MASEIHMTGPMCLIENTNGRLMANPEALKILSAITQPMVVVAIVGLYRTGKSYLMNKLAGKKKGFSLGSTVQSHTKGIWMWCVPHPKKPGHILVLLDTEGLGDVEKGDNQNDSWIFALAVLLSSTFVYNSIGTINQQAMDQLYYVTELTHRIRSKSSPDENENEVEDSADFVSFFPDFVWTLRDFSLDLEADGQPLTPDEYLTYSLKLKKGTSQKDETFNLPRLCIRKFFPKKKCFVFDRPVHRRKLAQLEKLQDEELDPEFVQQVADFCSYIFSNSKTKTLSGGIQVNGPRLESLVLTYVNAISSGDLPCMENAVLALAQIENSAAVQKAIAHYEQQMGQKVQLPTETLQELLDLHRDSEREAIEVFIRSSFKDVDHLFQKELAAQLEKKRDDFCKQNQEASSDRCSALLQVIFSPLEEEVKAGIYSKPGGYRLFVQKLQDLKKKYYEEPRKGIQAEEILQTYLKSKESMTDAILQTDQTLTEKEKEIEVERVKAESAQASAKMLQEMQRKNEQMMEQKERSYQEHLKQLTEKMENDRVQLLKEQERTLALKLQEQEQLLKEGFQKESRIMKNEIQDLQTKMRRRKACTIS
B1: in data set [1], the stoichiometry N was found to be 2.

B2: geranylgeranylated GBP5 (guanylate-binding protein 5), Q96PP8 1-586 (natural protein)
chain: MALEIHMSDPMCLIENFNEQLKVNQEALEILSAITQPVVVVAIVGLYRTGKSYLMNKLAGKNKGFSVASTVQSHTKGIWIWCVPHPNWPNHTLVLLDTEGLGDVEKADNKNDIQIFALALLLSSTFVYNTVNKIDQGAIDLLHNVTELTDLLKARNSPDLDRVEDPADSASFFPDLVWTLRDFCLGLEIDGQLVTPDEYLENSLRPKQGSDQRVQNFNLPRLCIQKFFPKKKCFIFDLPAHQKKLAQLETLPDDELEPEFVQQVTEFCSYIFSHSMTKTLPGGIMVNGSRLKNLVLTYVNAISSGDLPCIENAVLALAQRENSAAVQKAIAHYDQQMGQKVQLPMETLQELLDLHRTSEREAIEVFMKNSFKDVDQSFQKELETLLDAKQNDICKRNLEASSDYCSALLKDIFGPLEEAVKQGIYSKPGGHNLFIQKTEELKAKYYREPRKGIQAEEVLQKYLKSKESVSHAILQTDQALTETEKKKKEAQVKAEAEKAEAQRLAAIQRQNEQMMQERERLHQEQVRQMEIAKQNWLAEQQKMQEQQMQEQAAQLSTTFQAQNRSLLSELQHAQRTVNNDDPCVLL
modifications: here or on the partner: C-terminal geranylgeranyl moiety; C-terminal geranylgeranyl moiety
On to B2, for which, in data set [2], the stoichiometry N came out at 2.

B3: geranylgeranylated GBP5 (guanylate-binding protein 5) (natural protein, human, UniProt Q96PP8 1-586, looked up)
chain: MALEIHMSDPMCLIENFNEQLKVNQEALEILSAITQPVVVVAIVGLYRTGKSYLMNKLAGKNKGFSVASTVQSHTKGIWIWCVPHPNWPNHTLVLLDTEGLGDVEKADNKNDIQIFALALLLSSTFVYNTVNKIDQGAIDLLHNVTELTDLLKARNSPDLDRVEDPADSASFFPDLVWTLRDFCLGLEIDGQLVTPDEYLENSLRPKQGSDQRVQNFNLPRLCIQKFFPKKKCFIFDLPAHQKKLAQLETLPDDELEPEFVQQVTEFCSYIFSHSMTKTLPGGIMVNGSRLKNLVLTYVNAISSGDLPCIENAVLALAQRENSAAVQKAIAHYDQQMGQKVQLPMETLQELLDLHRTSEREAIEVFMKNSFKDVDQSFQKELETLLDAKQNDICKRNLEASSDYCSALLKDIFGPLEEAVKQGIYSKPGGHNLFIQKTEELKAKYYREPRKGIQAEEVLQKYLKSKESVSHAILQTDQALTETEKKKKEAQVKAEAEKAEAQRLAAIQRQNEQMMQERERLHQEQVRQMEIAKQNWLAEQQKMQEQQMQEQAAQLSTTFQAQNRSLLSELQHAQRTVNNDDPCVLL
modifications: C-terminal geranylgeranyl moiety
With B3, the binding result in data set [3] is “binds”.

B4: nongeranylgeranylated GBP5, Q96PP8 1-586 (natural protein)
chain: MALEIHMSDPMCLIENFNEQLKVNQEALEILSAITQPVVVVAIVGLYRTGKSYLMNKLAGKNKGFSVASTVQSHTKGIWIWCVPHPNWPNHTLVLLDTEGLGDVEKADNKNDIQIFALALLLSSTFVYNTVNKIDQGAIDLLHNVTELTDLLKARNSPDLDRVEDPADSASFFPDLVWTLRDFCLGLEIDGQLVTPDEYLENSLRPKQGSDQRVQNFNLPRLCIQKFFPKKKCFIFDLPAHQKKLAQLETLPDDELEPEFVQQVTEFCSYIFSHSMTKTLPGGIMVNGSRLKNLVLTYVNAISSGDLPCIENAVLALAQRENSAAVQKAIAHYDQQMGQKVQLPMETLQELLDLHRTSEREAIEVFMKNSFKDVDQSFQKELETLLDAKQNDICKRNLEASSDYCSALLKDIFGPLEEAVKQGIYSKPGGHNLFIQKTEELKAKYYREPRKGIQAEEVLQKYLKSKESVSHAILQTDQALTETEKKKKEAQVKAEAEKAEAQRLAAIQRQNEQMMQERERLHQEQVRQMEIAKQNWLAEQQKMQEQQMQEQAAQLSTTFQAQNRSLLSELQHAQRTVNNDDPCVLL
Molecule B4 registered a stoichiometry N in data set [4] of 2.

B5: geranylgeranylated GBP2 (guanylate-binding protein 2) (natural protein, human, UniProt P32456 1-591, looked up)
chain: MAPEINLPGPMSLIDNTKGQLVVNPEALKILSAITQPVVVVAIVGLYRTGKSYLMNKLAGKKNGFSLGSTVKSHTKGIWMWCVPHPKKPEHTLVLLDTEGLGDIEKGDNENDSWIFALAILLSSTFVYNSMGTINQQAMDQLHYVTELTDRIKANSSPGNNSVDDSADFVSFFPAFVWTLRDFTLELEVDGEPITADDYLELSLKLRKGTDKKSKSFNDPRLCIRKFFPKRKCFVFDWPAPKKYLAHLEQLKEEELNPDFIEQVAEFCSYILSHSNVKTLSGGIPVNGPRLESLVLTYVNAISSGDLPCMENAVLALAQIENSAAVEKAIAHYEQQMGQKVQLPTETLQELLDLHRDSEREAIEVFMKNSFKDVDQMFQRKLGAQLEARRDDFCKQNSKASSDCCMALLQDIFGPLEEDVKQGTFSKPGGYRLFTQKLQELKNKYYQVPRKGIQAKEVLKKYLESKEDVADALLQTDQSLSEKEKAIEVERIKAESAEAAKKMLEEIQKKNEEMMEQKEKSYQEHVKQLTEKMERDRAQLMAEQEKTLALKLQEQERLLKEGFENESKRLQKDIWDIQMRSKSLEPICNIL
modifications: C-terminal geranylgeranyl moiety
Turning to B5, the binding result (in “dynamic light scattering”; in data set [3]) was “binds” throughout.

B6: nongeranylgeranylated GBP2 (natural protein, human, UniProt P32456 1-591, looked up)
chain: MAPEINLPGPMSLIDNTKGQLVVNPEALKILSAITQPVVVVAIVGLYRTGKSYLMNKLAGKKNGFSLGSTVKSHTKGIWMWCVPHPKKPEHTLVLLDTEGLGDIEKGDNENDSWIFALAILLSSTFVYNSMGTINQQAMDQLHYVTELTDRIKANSSPGNNSVDDSADFVSFFPAFVWTLRDFTLELEVDGEPITADDYLELSLKLRKGTDKKSKSFNDPRLCIRKFFPKRKCFVFDWPAPKKYLAHLEQLKEEELNPDFIEQVAEFCSYILSHSNVKTLSGGIPVNGPRLESLVLTYVNAISSGDLPCMENAVLALAQIENSAAVEKAIAHYEQQMGQKVQLPTETLQELLDLHRDSEREAIEVFMKNSFKDVDQMFQRKLGAQLEARRDDFCKQNSKASSDCCMALLQDIFGPLEEDVKQGTFSKPGGYRLFTQKLQELKNKYYQVPRKGIQAKEVLKKYLESKEDVADALLQTDQSLSEKEKAIEVERIKAESAEAAKKMLEEIQKKNEEMMEQKEKSYQEHVKQLTEKMERDRAQLMAEQEKTLALKLQEQERLLKEGFENESKRLQKDIWDIQMRSKSLEPICNIL
Regarding B6, in the data set “dynamic light scattering”, the “stoichiometry N” value was 2.
